Results as given in PMC4024747 (Nature Communications, 2014).

Tests used:
[1] = biological target: rPfSUB1cat, recombinant Plasmodium falciparum SUB1 core catalytic domain (38 kDa) (Plasmodium falciparum, UniProt Q8I0V0); test: western blot; settings: both partners purified
[2] = biological target: T1, recombinant P. vivax SUB1 (Plasmodium vivax, PVX_097935 (Salvador …, UniProt E6Y8B9)); test: western blot; settings: both partners purified
T1 construct: also called PvSUB1
T1 sequence (E6Y8B9 26-630): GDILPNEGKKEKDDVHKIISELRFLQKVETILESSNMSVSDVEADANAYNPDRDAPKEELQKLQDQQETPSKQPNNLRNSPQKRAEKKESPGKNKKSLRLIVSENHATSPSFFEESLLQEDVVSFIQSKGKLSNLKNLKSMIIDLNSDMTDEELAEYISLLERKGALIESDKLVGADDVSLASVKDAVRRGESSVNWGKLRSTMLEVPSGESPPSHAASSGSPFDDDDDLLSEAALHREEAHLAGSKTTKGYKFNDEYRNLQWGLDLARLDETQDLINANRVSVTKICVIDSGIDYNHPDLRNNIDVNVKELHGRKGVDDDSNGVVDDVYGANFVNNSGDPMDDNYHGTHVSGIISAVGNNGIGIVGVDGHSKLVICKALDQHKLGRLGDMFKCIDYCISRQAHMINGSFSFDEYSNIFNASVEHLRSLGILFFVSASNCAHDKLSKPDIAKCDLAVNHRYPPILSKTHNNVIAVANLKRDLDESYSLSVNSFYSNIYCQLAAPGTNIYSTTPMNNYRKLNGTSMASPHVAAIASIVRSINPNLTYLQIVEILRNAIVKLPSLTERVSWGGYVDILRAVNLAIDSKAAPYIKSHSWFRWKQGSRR

rPfSUB1cat, recombinant Plasmodium falciparum SUB1 core catalytic domain (38 kDa), sequence (Q8I0V0 333-668): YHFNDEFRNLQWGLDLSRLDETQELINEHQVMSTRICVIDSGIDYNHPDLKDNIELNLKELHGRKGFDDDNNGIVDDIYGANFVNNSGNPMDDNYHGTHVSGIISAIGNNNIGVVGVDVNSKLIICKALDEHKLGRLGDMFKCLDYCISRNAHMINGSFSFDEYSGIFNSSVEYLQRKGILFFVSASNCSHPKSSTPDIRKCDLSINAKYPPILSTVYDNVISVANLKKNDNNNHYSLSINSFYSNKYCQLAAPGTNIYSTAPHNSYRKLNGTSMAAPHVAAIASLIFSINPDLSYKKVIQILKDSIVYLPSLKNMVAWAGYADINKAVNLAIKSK

B1: mAb NIMP.M7, PfSUB1-specific monoclonal antibody (whole antibody) (antibody, V domains shown)
VH: QVQLQESGPDLVKPSSSLKLTCTTTGYSISSGYSWHWIRQEPGKSLEWMGYIHYSGSTDYNDSLKARITITRDTASNMFFLQLSSVTSDDTAVYYCVIYRYDGQWVFDDWGAGTTVTVSS
VL: DIVLTQSPATMSASLGQRVSMSCSASSSVSTSYFHWYQQKPGSSPKLWIYSTSNLASGVPGRFSGSGSGTSYSLSISSMEAEDAATYYCHQFHRSPLTFGAGTKLELK
B1: binds [1]; binds [2].
